Measurements as given in the supplement of paper PMC5998384.

Assays:
HeLa Kyoto [1] = experiment: solubility in G1/S (NP-40 vs SDS abundance) (log2 ratio); higher = more soluble; conditions: cell cycle stage: G1/S
HeLa Kyoto [2] = experiment: melting temperature (median over replicates), in situ; higher = more thermally stable
HeLa Kyoto [3] = experiment: thermal stability score vs G1/S (z-score of summed log2 fold changes over temperatures); higher = more thermally stable than in G1/S
HeLa Kyoto [4] = experiment: solubility change mitosis vs G1/S (difference of NP-40 vs SDS log2 ratios) (log2 ratio difference); higher = more soluble in mitosis
[5] = cell cycle stage: early G1 (4.5 h after nocodazole release)
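Throughout, for melting temperature (median over replicates), in situ: HeLa Kyoto cells synchronized by double thymidine or nocodazole block, proteins quantified by TMT10plex mass spectrometry, three independent biological replicates.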
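Throughout, for solubility change mitosis vs G1/S (difference of NP-40 vs SDS log2 ratios): synchronized HeLa Kyoto cells (double thymidine block for G1/S, nocodazole release for mitosis), protein amounts in NP-40 versus SDS lysates quantified by mass spectrometry, three biological replicates.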
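Throughout, for solubility in G1/S (NP-40 vs SDS abundance): HeLa Kyoto cells arrested at G1/S by double thymidine block, proteins quantified by TMT10plex mass spectrometry in mild NP-40 versus SDS extracts, three biological replicates.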
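Throughout, for thermal stability score vs G1/S (z-score of summed log2 fold changes over temperatures): synchronized HeLa Kyoto cells, proteins quantified by TMT10plex mass spectrometry, three biological replicates, mitosis taken 0.5 h after nocodazole release, G1/S directly after double thymidine block.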

| Sequence | solubility in G1/S (log2) (HeLa Kyoto [1]) | melting temperature (HeLa Kyoto [2]; cell cycle stage: G1/S) | melting temperature (HeLa Kyoto [2]; cell cycle stage: mitosis) | thermal stability score (HeLa Kyoto [3]; [5]) | thermal stability score (HeLa Kyoto [3]; cell cycle stage: mitosis) | solubility change mitosis (log2) (HeLa Kyoto [4]) |
| --- | --- | --- | --- | --- | --- | --- |
| MYALFLLASLLGAALAGPVLGLKECTRGSAVWCQNVKTASDCGAVKHCLQTVWNKPTVKSLPCDICKDVVTAAGDMLKDNATEEEILVYLEKTCDWLPKPNMSASCKEIVDSYLPVILDIIKGEMSRPGEVCSALNLCESLQKHLAELNHQKQLESNKIPELDMTEVVAPFMANIPLLLYPQDGPRSKPQPKDNGDVCQDCIQMVTDIQTAVRTNSTFVQALVEHVKEECDRLGPGMADICKNYISQYSEIAIQMMMHMQPKEICALVGFCDEVKEMPMQTLVPAKVASKNVIPALELVEPIKKHEVPAKSDVYCEVCEFLVKEVTKLIDNNKTEKEILDAFDKMCSKLPKSLSEECQEVVDTYGSSILSILLEEVSPELVCSMLHLCSGTRLPALTVHVTQPKDGGFCEVCKKLVGYLDRNLEKNSTKQEILAALEKGCSFLPDPYQKQCDQFVAEYEPVLIEILVEVMDPSFVCLKIGACPSAHKPLLGTEKCIWGPSYWCQNTETAAQCNAVEHCKRHVWN [PSAP] | 0.0145 | 58.6 °C | 56.3 °C | -1.22 | -0.0458 | 0.32 |
| MGQGPRSPHKVGRRFPAGGKRGRGAKGSGRPLPGRKRQPWPPPDGRSEPAPDSHPHLSPEALGYFRRALSALKEAPETGEERDLMVHNIMKEVETQALALSTNRTGSEMLQELLGFSPLKPLCRVWAALRSNLRTVACHRCGVHVLQSALLQLPRLLGSAAEEEEEEEEDGKDGPTETLEELVLGLAAEVCDDFLVYCGDTHGSFVVRTLLQVLGGTILESERARPRGSQSSEAQKTPAQECKPADFEVPETFLNRLQDLSSSFLKDIAVFITDKISSFCLQVALQVLHRKLPQFCAHLCNAVIGYLSTRGSSVDGSPLLLFLRDQTSSRLLEQVLLVLEPPRLQSLFEEHLQGQLQTLAAHPIANFPLQRLLDAVTTPELLSPVFEELSPVLEAVLAQGHPGVVIALVGACRRVGAYQAKVLQLLLEAFHCAEPSSRQVACVPLFATLMAYEVYYGLTEEEGAVPAEHQVAMAAARALGDVTVLGSLLLQHLLHFSTPGLVLRSLGALTGPQLLSLAQSPAGSHVLDAILTSPSVTRKLRRRVLQNLKGQYVALACSRHGSRVLDAIWSGAALRARKEIAAELGEQNQELIRDPFGHHVARNVALTTFLKRREAWEQQQGAVAKRRRALNSILED [NOP9] | -0.0623 | 49.1 °C | 49.1 °C | 0.433 | 0.684 | 0.2 |
| MKRSVAVWLLVGLSLGVPQFGKGDICDPNPCENGGICLPGLADGSFSCECPDGFTDPNCSSVVEVASDEEEPTSAGPCTPNPCHNGGTCEISEAYRGDTFIGYVCKCPRGFNGIHCQHNINECEVEPCKNGGICTDLVANYSCECPGEFMGRNCQYKCSGPLGIEGGIISNQQITASSTHRALFGLQKWYPYYARLNKKGLINAWTAAENDRWPWIQINLQRKMRVTGVITQGAKRIGSPEYIKSYKIAYSNDGKTWAMYKVKGTNEDMVFRGNIDNNTPYANSFTPPIKAQYVRLYPQVCRRHCTLRMELLGCELSGCSEPLGMKSGHIQDYQITASSIFRTLNMDMFTWEPRKARLDKQGKVNAWTSGHNDQSQWLQVDLLVPTKVTGIITQGAKDFGHVQFVGSYKLAYSNDGEHWTVYQDEKQRKDKVFQGNFDNDTHRKNVIDPPIYARHIRILPWSWYGRITLRSELLGCTEEE [EDIL3] | -0.122 |  | 55.6 °C | 1.05 | 0.661 | -0.0391 |
| MPLNRTLSMSSLPGLEDWEDEFDLENAVLFEVAWEVANKVGGIYTVLQTKAKVTGDEWGDNYFLVGPYTEQGVRTQVELLEAPTPALKRTLDSMNSKGCKVYFGRWLIEGGPLVVLLDVGASAWALERWKGELWDTCNIGVPWYDREANDAVLFGFLTTWFLGEFLAQSEEKPHVVAHFHEWLAGVGLCLCRARRLPVATIFTTHATLLGRYLCAGAVDFYNNLENFNVDKEAGERQIYHRYCMERAAAHCAHVFTTVSQITAIEAQHLLKRKPDIVTPNGLNVKKFSAMHEFQNLHAQSKARIQEFVRGHFYGHLDFNLDKTLYFFIAGRYEFSNKGADVFLEALARLNYLLRVNGSEQTVVAFFIMPARTNNFNVETLKGQAVRKQLWDTANTVKEKFGRKLYESLLVGSLPDMNKMLDKEDFTMMKRAIFATQRQSFPPVCTHNMLDDSSDPILTTIRRIGLFNSSADRVKVIFHPEFLSSTSPLLPVDYEEFVRGCHLGVFPSYYEPWGYTPAECTVMGIPSISTNLSGFGCFMEEHIADPSAYGIYILDRRFRSLDDSCSQLTSFLYSFCQQSRRQRIIQRNRTERLSDLLDWKYLGRYYMSARHMALSKAFPEHFTYEPNEADAAQGYRYPRPASVPPSPSLSRHSSPHQSEDEEDPRNGPLEEDGERYDEDEEAAKDRRNIRAPEWPRRASCTSSTSGSKRNSVDTATSSSLSTPSEPLSPTSSLGEERN [GYS1] | -0.205 | 54.5 °C | 55.2 °C | 2.32 | 2.69 | -0.314 |
| MATPSKKTSTPSPQPSKRALPRDPSSEVPSKRKNSAPQLPLLQSSGPFVEGSIVRISMENFLTYDICEVSPGPHLNMIVGANGTGKSSIVCAICLGLAGKPAFMGRADKVGFFVKRGCSRGMVEIELFRASGNLVITREIDVAKNQSFWFINKKSTTQKIVEEKVAALNIQVGNLCQFLPQDKVGEFAKLSKIELLEATEKSIGPPEMHKYHCELKNLREKEKQLETSCKEKTEYLQKMVQRNERYKQDVERFYERKRHLDLIEMLEAKRPWVEYENVRQEYEEVKLVRDRVKEEVRKLKEGQIPVTCRIEEMENERHNLEARIKEKATDIKEASQKCKQKQDVIERKDKHIEELQQALIVKQNEELDRQRRIGNTRKMIEDLQNELKTTENCENLQPQIDAITNDLRRIQDEKALCEGEIIDKRRERETLEKEKKSVDDHIVRFDNLMNQKEDKLRQRFRDTYDAVLWLRNNRDKFKQRVCEPIMLTINMKDNKNAKYIENHIPSNDLRAFVFESQEDMEVFLKEVRDNKKLRVNAVIAPKSSYADKAPSRSLNELKQYGFFSYLRELFDAPDPVMSYLCCQYHIHEVPVGTEKTRERIERVIQETRLKQIYTAEEKYVVKTSFYSNKVISSNTSLKVAQFLTVTVDLEQRRHLEEQLKEIHRKLQAVDSGLIALRETSKHLEHKDNELRQKKKELLERKTKKRQLEQKISSKLGSLKLMEQDTCNLEEEERKASTKIKEINVQKAKLVTELTNLIKICTSLHIQKVDLILQNTTVISEKNKLESDYMAASSQLRLTEQHFIELDENRQRLLQKCKELMKRARQVCNLGAEQTLPQEYQTQVPTIPNGHNSSLPMVFQDLPNTLDEIDALLTEERSRASCFTGLNPTIVQEYTKREEEIEQLTEELKGKKVELDQYRENISQVKERWLNPLKELVEKINEKFSNFFSSMQCAGEVDLHTENEEDYDKYGIRIRVKFRSSTQLHELTPHHQSGGERSVSTMLYLMALQELNRCPFRVVDEINQGMDPINERRVFEMVVNTACKENTSQYFFITPKLLQNLPYSEKMTVLFVYNGPHMLEPNTWNLKAFQRRRRRITFTQPS [SMC5] | -0.139 | 50.6 °C | 50.7 °C | 0.153 | 0.876 | -0.0502 |
| MFVPRSLKIKRNANDDGKSCVAKIIKPDPEDLQLDKSRDVPVDAVATEAATIDRHISESCPFPSPGGQLAEVHSVSPEQGAKDSHPSEEPVKSFSKTQRWAEPGEPICVVCGRYGEYICDKTDEDVCSLECKAKHLLQVKEKEEKSKLSNPQKADSEPESPLNASYVYKEHPFILNLQEDQIENLKQQLGILVQGQEVTRPIIDFEHCSLPEVLNHNLKKSGYEVPTPIQMQMIPVGLLGRDILASADTGSGKTAAFLLPVIMRALFESKTPSALILTPTRELAIQIERQAKELMSGLPRMKTVLLVGGLPLPPQLYRLQQHVKVIIATPGRLLDIIKQSSVELCGVKIVVVDEADTMLKMGFQQQVLDILENIPNDCQTILVSATIPTSIEQLASQLLHNPVRIITGEKNLPCANVRQIILWVEDPAKKKKLFEILNDKKLFKPPVLVFVDCKLGADLLSEAVQKITGLKSISIHSEKSQIERKNILKGLLEGDYEVVVSTGVLGRGLDLISVRLVVNFDMPSSMDEYVHQIGRVGRLGQNGTAITFINNNSKRLFWDIAKRVKPTGSILPPQLLNSPYLHDQKRKEQQKDKQTQNDLVTGANLMDIIRKHDKSNSQK [DDX59] | 0.419 | 50.8 °C | 50.3 °C | 1.04 | 1.76 | -0.18 |
| MDVERLQEALKDFEKRGKKEVCPVLDQFLCHVAKTGETMIQWSQFKGYFIFKLEKVMDDFRTSAPEPRGPPNPNVEYIPFDEMKERILKIVTGFNGIPFTIQRLCELLTDPRRNYTGTDKFLRGVEKNVMVVSCVYPSSEKNNSNSLNRMNGVMFPGNSPSYTERSNINGPGTPRPLNRPKVSLSAPMTTNGLPESTDSKEANLQQNEEKNHSDSSTSESEVSSVSPLKNKHPDEDAVEAEGHEVKRLRFDKEGEVRETASQTTSSEISSVMVGETEASSSSQDKDKDSRCTRQHCTEEDEEEDEEEEEESFMTSREMIPERKNQEKESDDALTVNEETSEENNQMEESDVSQAEKDLLHSEGSENEGPVSSSSSDCRETEELVGSNSSKTGEILSESSMENDDEATEVTDEPMEQD [PPP4R2] | 0.000183 | 51.2 °C | 51.7 °C | -0.271 | -0.968 | -0.111 |
